Measurements: article PMC9351484
Values joined by “and” are separate entries in the source; they are usually repeats but may differ in a detail not shown here. Equal entries are not always repeated. One block for each molecule: values may come before it.

Legend:
POT1 (human) = POT1 (human) (UniProt Q9NUX5); experiment: native MS
TRF1 (human) [1] = molecular target: TRF1 (human) (UniProt P54274); experiment: mass photometry
TPP1 (human) = experiment: native MS
[2] = molecular target: TRF2/Rap1 complex (human) (UniProt Q9NYB0); experiment: co-sedimentation + other: mass photometry
TRF1 (human) [3] = molecular target: TRF1 (human) (UniProt P54274); experiment: native MS
Target sequence in this assay (P54274 whole entry): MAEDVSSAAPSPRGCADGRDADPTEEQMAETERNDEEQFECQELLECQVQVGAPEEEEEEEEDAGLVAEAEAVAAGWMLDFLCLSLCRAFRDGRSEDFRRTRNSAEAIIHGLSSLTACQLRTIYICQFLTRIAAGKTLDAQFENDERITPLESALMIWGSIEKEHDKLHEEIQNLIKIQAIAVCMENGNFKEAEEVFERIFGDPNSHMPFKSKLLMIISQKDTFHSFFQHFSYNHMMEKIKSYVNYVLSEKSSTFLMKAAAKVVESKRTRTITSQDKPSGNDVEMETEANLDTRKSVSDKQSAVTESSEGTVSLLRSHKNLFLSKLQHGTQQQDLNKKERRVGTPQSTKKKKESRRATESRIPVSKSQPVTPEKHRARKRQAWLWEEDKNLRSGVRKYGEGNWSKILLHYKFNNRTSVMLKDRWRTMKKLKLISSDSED

[4] = molecular target: TRF2/His6MBP-Rap1 complex (human) (UniProt Q9NYB0); experiment: pull-down + other: mass photometry
POT1;TPP1N [5] = molecular target: T1, POT1;TPP1N (human;human, UniProt Q9NUX5;Q96AP0 1-634;1-251, |); experiment: size-exclusion chromatography and negative-stain EM
POT1;TPP1;GFP-TIN2 = POT1;TPP1;GFP-TIN2 (human;human;human, UniProt Q9NUX5;Q96AP0;Q9BSI4-2 1-634;1-458;1-352, ||); experiment: negative-stain EM
POT1;TPP1N [6] = molecular target: T1, POT1;TPP1N; experiment: negative-stain EM

Sequence of POT1/TPP1/GFP-TIN2 complex (Q9NUX5 whole entry, looked up, one chain of several): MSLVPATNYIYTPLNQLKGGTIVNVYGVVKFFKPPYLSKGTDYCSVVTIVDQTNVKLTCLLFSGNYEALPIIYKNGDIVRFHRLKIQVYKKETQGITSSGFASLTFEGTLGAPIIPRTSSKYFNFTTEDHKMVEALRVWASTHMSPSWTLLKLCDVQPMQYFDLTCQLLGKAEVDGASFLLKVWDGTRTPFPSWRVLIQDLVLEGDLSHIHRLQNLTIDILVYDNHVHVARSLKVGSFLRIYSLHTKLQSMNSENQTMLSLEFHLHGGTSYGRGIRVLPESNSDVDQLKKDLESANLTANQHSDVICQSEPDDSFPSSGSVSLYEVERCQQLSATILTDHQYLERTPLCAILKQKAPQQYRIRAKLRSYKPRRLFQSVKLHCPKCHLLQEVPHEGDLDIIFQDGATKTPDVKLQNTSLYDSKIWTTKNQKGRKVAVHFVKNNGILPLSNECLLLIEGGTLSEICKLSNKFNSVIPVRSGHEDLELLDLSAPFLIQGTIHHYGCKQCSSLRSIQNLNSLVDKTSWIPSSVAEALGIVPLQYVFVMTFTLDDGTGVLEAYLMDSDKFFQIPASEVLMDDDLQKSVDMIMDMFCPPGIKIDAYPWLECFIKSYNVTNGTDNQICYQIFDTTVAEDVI
Sequence of TRF2/Rap1 complex (human) (Q9NYB0 whole entry, looked up, one chain of several): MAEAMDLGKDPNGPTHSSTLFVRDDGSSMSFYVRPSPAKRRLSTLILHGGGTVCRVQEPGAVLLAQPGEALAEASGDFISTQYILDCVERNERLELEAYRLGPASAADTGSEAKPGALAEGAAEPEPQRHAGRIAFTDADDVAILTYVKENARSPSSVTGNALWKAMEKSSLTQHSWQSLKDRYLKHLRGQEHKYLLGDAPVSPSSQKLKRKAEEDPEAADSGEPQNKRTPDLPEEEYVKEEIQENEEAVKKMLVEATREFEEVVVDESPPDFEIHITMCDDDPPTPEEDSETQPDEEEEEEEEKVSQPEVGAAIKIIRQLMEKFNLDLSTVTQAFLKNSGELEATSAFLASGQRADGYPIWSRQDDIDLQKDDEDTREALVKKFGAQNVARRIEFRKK
T1 sequence (Q9NUX5 whole entry, chain 1 of 2): as the sequence (Q9NUX5 whole entry, looked up, one chain of several) above
T1 sequence (Q96AP0 1-251, chain 2 of 2): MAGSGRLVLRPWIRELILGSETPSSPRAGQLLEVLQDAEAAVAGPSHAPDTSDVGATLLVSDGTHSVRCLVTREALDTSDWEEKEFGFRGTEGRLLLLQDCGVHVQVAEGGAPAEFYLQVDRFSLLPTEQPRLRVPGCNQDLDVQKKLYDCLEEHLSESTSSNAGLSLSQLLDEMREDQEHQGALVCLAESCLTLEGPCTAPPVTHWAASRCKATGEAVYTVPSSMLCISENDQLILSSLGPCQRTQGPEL
Sequence of GFP-TIN2 (natural protein) (Q9BSI4 2-451): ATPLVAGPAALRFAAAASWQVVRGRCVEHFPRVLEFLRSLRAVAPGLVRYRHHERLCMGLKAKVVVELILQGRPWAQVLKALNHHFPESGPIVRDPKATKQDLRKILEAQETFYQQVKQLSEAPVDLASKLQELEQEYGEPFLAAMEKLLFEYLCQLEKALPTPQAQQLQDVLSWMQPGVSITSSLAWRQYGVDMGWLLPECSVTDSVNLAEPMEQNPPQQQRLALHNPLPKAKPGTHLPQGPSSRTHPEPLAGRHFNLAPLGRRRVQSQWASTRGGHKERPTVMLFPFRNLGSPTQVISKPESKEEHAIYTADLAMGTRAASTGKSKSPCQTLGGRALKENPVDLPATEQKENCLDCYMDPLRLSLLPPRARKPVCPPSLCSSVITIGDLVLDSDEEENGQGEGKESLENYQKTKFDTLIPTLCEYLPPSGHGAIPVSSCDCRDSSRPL
Sequence of POT1 (human) (Q9NUX5 whole entry): as the sequence (Q9NUX5 whole entry, looked up, one chain of several) above
Sequence of POT1;TPP1;GFP-TIN2 (Q9NUX5 whole entry, chain 1 of 3): as the sequence (Q9NUX5 whole entry, looked up, one chain of several) above
Sequence of POT1;TPP1;GFP-TIN2 (Q96AP0 whole entry, chain 2 of 3): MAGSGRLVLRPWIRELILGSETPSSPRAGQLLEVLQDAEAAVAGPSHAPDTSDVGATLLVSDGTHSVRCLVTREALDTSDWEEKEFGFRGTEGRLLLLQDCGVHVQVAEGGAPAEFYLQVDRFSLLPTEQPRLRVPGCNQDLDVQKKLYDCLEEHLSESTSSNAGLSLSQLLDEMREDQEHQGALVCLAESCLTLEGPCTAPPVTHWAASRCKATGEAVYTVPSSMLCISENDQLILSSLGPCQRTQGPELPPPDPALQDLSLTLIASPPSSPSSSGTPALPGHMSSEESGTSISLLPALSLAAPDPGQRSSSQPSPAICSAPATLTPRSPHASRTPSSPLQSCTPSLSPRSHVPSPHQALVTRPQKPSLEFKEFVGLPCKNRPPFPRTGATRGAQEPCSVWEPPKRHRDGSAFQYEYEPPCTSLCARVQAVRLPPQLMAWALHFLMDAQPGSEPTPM
Sequence of POT1;TPP1;GFP-TIN2 (Q9BSI4 1-352, chain 3 of 3): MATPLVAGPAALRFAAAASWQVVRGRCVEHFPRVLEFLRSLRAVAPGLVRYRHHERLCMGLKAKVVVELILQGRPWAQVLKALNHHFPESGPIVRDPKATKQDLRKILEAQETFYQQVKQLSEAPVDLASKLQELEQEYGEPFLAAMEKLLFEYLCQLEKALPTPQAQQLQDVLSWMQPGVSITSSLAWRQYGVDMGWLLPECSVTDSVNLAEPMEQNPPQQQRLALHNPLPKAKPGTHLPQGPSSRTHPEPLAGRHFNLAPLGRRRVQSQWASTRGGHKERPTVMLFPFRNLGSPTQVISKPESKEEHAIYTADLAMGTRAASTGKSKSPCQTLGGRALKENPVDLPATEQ
Sequence of TRF1 (P54274 2-439): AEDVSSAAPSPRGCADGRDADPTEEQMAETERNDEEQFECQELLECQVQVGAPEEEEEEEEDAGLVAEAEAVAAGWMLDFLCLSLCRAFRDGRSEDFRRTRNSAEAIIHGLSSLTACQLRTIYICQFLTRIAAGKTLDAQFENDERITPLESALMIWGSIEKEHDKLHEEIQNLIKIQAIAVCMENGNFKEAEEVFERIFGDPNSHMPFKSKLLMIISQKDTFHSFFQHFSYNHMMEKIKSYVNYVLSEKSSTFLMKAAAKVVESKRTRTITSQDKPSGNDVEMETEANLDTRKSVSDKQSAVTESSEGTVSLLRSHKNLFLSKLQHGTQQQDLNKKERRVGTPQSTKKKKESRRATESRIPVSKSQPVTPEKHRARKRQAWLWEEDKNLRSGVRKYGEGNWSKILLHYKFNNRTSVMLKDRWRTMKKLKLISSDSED
Sequence of TPP1 (human) (Q96AP0 whole entry): as the sequence (Q96AP0 whole entry, chain 2 of 3) above
Sequence of TPP1 (natural protein) (Q96AP0 whole entry): as the sequence (Q96AP0 whole entry, chain 2 of 3) above
Sequence of TRF2/His6MBP-Rap1 complex (human) (Q9NYB0 whole entry, looked up, one chain of several): as the sequence (Q9NYB0 whole entry, looked up, one chain of several) above
Sequence of POT1/TPP1/GFP-TIN2/TRF1 complex (P54274 whole entry, looked up): as the sequence (P54274 whole entry) above
Sequence of POT1/TPP1/GFP-TIN2/TRF1 complex (Q9NUX5 whole entry, looked up): as the sequence (Q9NUX5 whole entry, looked up, one chain of several) above
Sequence of TRF1/GFP-TIN2 complex (P54274 whole entry): as the sequence (P54274 whole entry) above
Sequence of TRF1/GFP-TIN2 complex (Q9BSI4 1-352): as the sequence (Q9BSI4 1-352, chain 3 of 3) above

Molecule: TRF1 (from UniProt P54274 1-439) (natural protein)
- stoichiometry N (TRF1 (human) [1]): 2

Molecule: TRF1/GFP-TIN2 complex (from UniProt P54274;Q9BSI4)
- stoichiometry N ((TRF1/GFP-TIN2)2 per (TRF2/Rap1)2) [2]: 1

Molecule: GGTTAGGGTTAG (ssDNA) [5'-biotin-(GGTTAG)2]
- binding result (POT1;TPP1N [5]): binds

Molecule: GGTTAGGGTTAGGGTTAGGGTTAG (ssDNA) [5'-biotin-(GGTTAG)4]
- binding result (POT1;TPP1;GFP-TIN2): binds
- binding result (POT1;TPP1N [6]): binds

More lines, now with the values ahead:

- stoichiometry N (TPP1 per POT1) (POT1 (human)): 1
Molecule: TPP1 (natural protein)

- stoichiometry N (TIN2 per TPP1) (TPP1 (human)): 1
- stoichiometry N (TIN2 per TRF1 dimer) (TRF1 (human) [1]): 2
Molecule: GFP-TIN2 (natural protein)

- stoichiometry N (POT1/TPP1/TIN2 per (TRF2/Rap1)2) [2]: 1 and 2
- stoichiometry N (POT1/TPP1/GFP-TIN2 per TRF1 dimer) (TRF1 (human) [3]): 1 and 2
- stoichiometry N (POT1/TPP1/GFP-TIN2 per TRF1 dimer) (TRF1 (human) [1]): 1 and 2
Molecule: POT1/TPP1/GFP-TIN2 complex (from UniProt Q9NUX5 1-634)

- stoichiometry N [4]: 1
Molecule: POT1/TPP1/GFP-TIN2/TRF1 complex (from UniProt Q9NUX5;P54274)
